Data from patent publication US9416162B2, “Peptides having reduced toxicity that stimulate cholesterol efflux” (The Regents of the University of California, priority 2013, dated 2016).
“Also recorded” adds a separate entry of the source. Non-standard residues stand in square brackets, D forms with d. No end group written: not given here. Cit = NC(=O)NCCC[C@H](N)C(=O)O

Columns and labels:
[1] = system: cynomolgus monkeys; assay: IV infusion toxicity in cynomolgus monkeys (ALT, AST, CPK, bilirubin); assay type: in vivo, cynomolgus monkey
Description: Male (upper panel) and female lower panel) cynomolgus monkeys were administered ATI-5261 at a fixed dose of 100 mg/kg by IV infusion (60 min) every 96 hours for a total of 4 injections. Blood was collected 24 h post infusion and levels of plasma ALT, AST, creatine kinase (CPK), and total and indirect bilirubin were determined Values are expressed as a fold-increase vs. pre-dose levels.

[2] = target: T1, ABCG1 (Homo sapiens, UniProt P45844); assay: ABCG1 mediated cholesterol efflux from BHK cells stably transfected with ABCG1; assay type: cell-based; settings: BHK cells ABCG1 vs. mock transfected, 50 μg peptide/ml serum-free medium
T1 construct: expressed in transfected cells; host or cells: BHK cells, stably transfected
Description: To further evaluate potential anti-atherogenic mechanisms of CS6253, BHK cells stably transfected with ABCG1 and mock-transfected control cells were labeled with [3H]cholesterol and used in efflux experiments. The citrulline form of LeuATI-5261 (CS6253) lipidated with POPC and ATI-5261 were used as cholesterol efflux acceptors at 50 μg peptide/ml serum-free medium. Panel A—Time-course for ABCG1 mediated cholesterol efflux from cells to lipid-free CS6253 peptide or CS6253:POPC complexes. […] Panel B—Comparison between CS6253 and ATI-5261 in mediating cellular cholesterol efflux via ABCG1. [3H]cholesterol labeled BHK cells (ABCG1 vs. mock transfected) were incubated with either lipid-free peptide or peptides formulated with POPC.

[3] = target: T2, ABCA1 (Mus musculus, UniProt P41233); assay: ABCA1-dependent [3H]cholesterol efflux from J774 macrophages with and without cAMP; assay type: cell-based
T2 construct: treated (18 h) with a cAMP analog to induce ABCA1 protein expression; endogenous in cells; host or cells: J774 macrophages
Excerpt: Suitable cholesterol efflux assays are described in, e.g., Bielicki, J. K and Oda, M. N., Biochemistry, 41:2089-2096 (2002); Jia et al., Biochem. Biophys. Res. Common., 297:206-213 (2002). In some embodiments, a polypeptide known to mediate cholesterol efflux (e.g., helix 9/10 of Apo A-I) is used to screen for additional mediators of cholesterol efflux in a cell based assay. For example, cell lines in which cholesterol efflux can be enhanced using a cAMP analog that up-regulates ABCA1 protein expression (e.g., J774 macrophages) can conveniently be used to assess the ability of a polypeptide of the present invention to mediate cholesterol efflux. The cells are incubated with labeled cholesterol (e.g., [^3H]cholesterol) under conditions appropriate for cholesterol uptake by the cells. Thus, cAMP or cAMP analogs (e.g., CPT-cAMP) are incubated with the cells for a suitable time before the initiation of cellular cholesterol efflux, i.e., prior to contacting the cells with a test polypeptide. Measurement of labeled cholesterol appearing in the medium is used to determine the cholesterol efflux mediating activity of the test polypeptide.
Aliphatic analogs of ATI-5261 lacking phenylalanine residues retained potent ABCA1 selective cholesterol efflux activity (FIG. 7). J774 macrophages were labeled (48 h) with [^3H]cholesterol and treated (18 h) with a cAMP analog to induce ABCA1 protein expression; cells incubated in the absence of cAMP (left bars) served as controls. […] Peptides were used at a concentration of 30 μg/ml, which was maximal for promoting cholesterol efflux activity. Panel B—Dependence of cholesterol efflux on the concentration of peptides. […] Results are expressed as the difference in cholesterol efflux (%/4 h) observed using cAMP treated vs. non-treated J774 cells. Values are means±SD, n=3.

[4] = target: T2, ABCA1; assay: as above; assay type: cell-based; set-up: ABCA1-dependent cholesterol efflux: dose or concentration left out as unconfirmed
[5] = system: human plasma; assay: Cholesterol efflux activity of human plasma treated with lipid-free peptide (J774 cells); assay type: cell-based; settings: human plasma with 300 μg/ml peptide 5 minutes (4° C.), diluted to 1%, cAMP treated J774 cells, vs vehicle-treated plasma
Description: To test whether CS6253 exerts anti-atherogenic effects in a biological milieu, human plasma was exposed (5 min) to lipid-free peptide. Interactions of CS6253 with HDL and activity of plasma to stimulate cholesterol efflux was assessed, using J774 macrophages labeled with [^3H]cholesterol. Panel A—Cholesterol efflux activity of plasma treated with lipid-free peptides. Human plasma was incubated with 300 μg/ml peptides for 5 minutes (4° C.), diluted to 1% in serum-free RPMI-1640 culture medium and immediately added to [^3H]cholesterol-labeled J774 cells. […] Panel B—Induction of preβ HDL upon treatment of human plasma with CS6253. Plasma was exposed to a small amount of peptide relative to endogenous apoA-I (1:10 mole ratio, respectively) and formation of preβ HDL assessed by 2D non-denaturing gradient gel electrophoresis (NDGGE) and western blot analysis. […] This is consistent with no peptide being associated with the preβ HDL fraction, indicating the particles were authentic preβ particles composed on endogenous apoA-I.

[6] = system: hamsters; assay: Lipoprotein profile in hamsters after sc injection (ion mobility, 2D gel); assay type: in vivo, hamster
Description: This example employed peptide T5237-4 EVCit[…]it[…] (SEQ ID NO:2) (Cit=citrulline). […] Following removal of albumin by centrifugations plasma was injected and lipoproteins separated with gas-phase differential electrophoretic macromolecular mobility-based method (ion mobility, or IM) (Caulfield et al. Clin Chem 2008 54:8 1307-16). […] The panel in the upper right hand corner is derived from a 2D gel separation (size and charge separation).

[7] = cAMP treated J774 cells, increasing concentration of peptides, 4 h
[8] = hamsters, 10, 30 and 100 mg/kg sc, plasma 4 h, dose-response

T2 sequence (P41233 whole entry): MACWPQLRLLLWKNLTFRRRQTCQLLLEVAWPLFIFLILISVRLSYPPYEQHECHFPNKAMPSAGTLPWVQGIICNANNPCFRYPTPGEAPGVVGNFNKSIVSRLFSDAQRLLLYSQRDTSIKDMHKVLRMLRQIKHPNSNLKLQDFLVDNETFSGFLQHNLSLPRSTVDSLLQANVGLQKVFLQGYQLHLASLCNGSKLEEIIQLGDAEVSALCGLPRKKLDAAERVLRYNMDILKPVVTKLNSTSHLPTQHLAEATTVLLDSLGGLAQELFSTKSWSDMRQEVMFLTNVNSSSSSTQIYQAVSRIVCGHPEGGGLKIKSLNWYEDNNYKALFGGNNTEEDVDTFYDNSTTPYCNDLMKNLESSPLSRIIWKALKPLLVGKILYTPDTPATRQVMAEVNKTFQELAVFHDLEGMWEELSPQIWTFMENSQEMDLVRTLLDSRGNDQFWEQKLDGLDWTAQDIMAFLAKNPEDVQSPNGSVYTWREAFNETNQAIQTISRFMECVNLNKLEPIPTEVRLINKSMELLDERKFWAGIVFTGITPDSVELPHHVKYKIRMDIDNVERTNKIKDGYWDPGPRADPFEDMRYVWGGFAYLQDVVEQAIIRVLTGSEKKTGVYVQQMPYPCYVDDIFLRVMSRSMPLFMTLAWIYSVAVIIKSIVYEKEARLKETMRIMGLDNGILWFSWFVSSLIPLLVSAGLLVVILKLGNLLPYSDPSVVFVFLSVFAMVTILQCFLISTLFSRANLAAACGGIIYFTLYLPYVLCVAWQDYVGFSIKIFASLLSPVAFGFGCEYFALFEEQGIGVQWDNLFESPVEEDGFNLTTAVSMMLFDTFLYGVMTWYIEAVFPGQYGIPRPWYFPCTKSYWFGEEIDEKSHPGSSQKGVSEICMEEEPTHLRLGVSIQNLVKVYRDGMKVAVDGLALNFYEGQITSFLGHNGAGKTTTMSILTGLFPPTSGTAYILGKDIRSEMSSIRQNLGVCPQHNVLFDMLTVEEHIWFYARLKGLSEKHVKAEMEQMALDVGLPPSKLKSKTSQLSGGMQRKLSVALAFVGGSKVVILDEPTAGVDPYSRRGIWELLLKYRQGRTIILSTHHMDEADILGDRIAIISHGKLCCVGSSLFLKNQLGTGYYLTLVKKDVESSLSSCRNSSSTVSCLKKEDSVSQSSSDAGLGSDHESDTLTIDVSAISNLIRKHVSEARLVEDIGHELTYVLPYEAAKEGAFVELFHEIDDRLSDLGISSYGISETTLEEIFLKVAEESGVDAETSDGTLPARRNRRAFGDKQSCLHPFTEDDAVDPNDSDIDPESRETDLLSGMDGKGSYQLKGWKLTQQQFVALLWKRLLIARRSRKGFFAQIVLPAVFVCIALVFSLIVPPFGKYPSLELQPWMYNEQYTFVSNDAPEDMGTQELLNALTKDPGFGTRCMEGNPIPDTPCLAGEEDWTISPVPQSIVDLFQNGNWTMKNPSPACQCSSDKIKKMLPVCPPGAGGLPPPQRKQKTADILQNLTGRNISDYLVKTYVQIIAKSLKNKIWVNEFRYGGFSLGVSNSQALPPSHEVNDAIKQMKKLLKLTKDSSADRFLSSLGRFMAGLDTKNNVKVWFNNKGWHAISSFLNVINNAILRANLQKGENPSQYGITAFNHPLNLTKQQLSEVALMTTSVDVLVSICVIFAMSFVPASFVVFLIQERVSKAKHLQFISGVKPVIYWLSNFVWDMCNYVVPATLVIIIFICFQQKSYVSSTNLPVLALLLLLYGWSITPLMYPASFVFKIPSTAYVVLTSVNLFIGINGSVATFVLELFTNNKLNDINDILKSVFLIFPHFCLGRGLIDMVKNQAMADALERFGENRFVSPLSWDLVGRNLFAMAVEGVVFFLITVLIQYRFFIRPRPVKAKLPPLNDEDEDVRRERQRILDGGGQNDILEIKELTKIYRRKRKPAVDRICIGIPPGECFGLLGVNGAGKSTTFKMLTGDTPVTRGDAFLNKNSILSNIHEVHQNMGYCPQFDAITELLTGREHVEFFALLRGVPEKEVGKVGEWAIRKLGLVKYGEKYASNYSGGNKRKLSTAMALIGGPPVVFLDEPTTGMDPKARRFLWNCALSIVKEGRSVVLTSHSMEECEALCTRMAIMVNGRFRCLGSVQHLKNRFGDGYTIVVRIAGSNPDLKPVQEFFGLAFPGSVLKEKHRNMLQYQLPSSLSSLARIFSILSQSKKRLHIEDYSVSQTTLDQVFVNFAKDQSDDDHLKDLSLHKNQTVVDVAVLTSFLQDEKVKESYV

ATI-5261: HDL mimetic peptide, parent peptide; triglyceride elevating and muscle toxic peptide used as positive control (EVRSKLEEWFAAFREFAEEFLARLKS) [reference compound]
cytotoxic response (ALT, AST, CPK, bilirubin) ([1]; 100 mg/kg IV infusion (60 min) every 96 hours, 4 injections, blood 24 h post infusion): induced a cytotoxic response | plasma creatine kinase (CPK), fold-increase vs. pre-dose levels ([1]; 100 mg/kg IV infusion, after the first infusion, male and female monkeys): marked increase | ABCG1 mediated cholesterol efflux [2]: poorly active | peptide concentration at saturation in cholesterol efflux [3, 7]: roughly 3 μg/ml | ABCA1-dependent cholesterol efflux activity ([4]; J774 macrophages with/without cAMP, peptide 10 μg/ml): overall greater efflux response | capacity of peptide-treated plasma to stimulate cholesterol efflux via ABCA1 [5]: greater capacity to stimulate cholesterol efflux

EVCitSKLEEWLAALCitELAEELLARLKS (SEQ ID NO:2) (EV[Cit]SKLEEWLAAL[Cit]ELAEELLARLKS) [CS6253, citrulline form of LeuATI-5261, R3,14→Citrulline, 26-mer]
ABCG1 mediated cholesterol efflux [2]: relatively poor activity | cholesterol efflux activity compared with parent ATI-5261 ([3]; J774 cells with and without cAMP): identical to that observed using the parent ATI-5261 peptide | Km (cholesterol efflux potency) on molar basis ([3]; cAMP treated J774, lipid-free peptide, 4 h, Michaelis Menten equation): near apolipoproteins molar potency | Km for cholesterol efflux [3, 7]: high potency; also recorded: low Km | peptide concentration at saturation in cholesterol efflux [3, 7]: 3 µg/mL | ABCA1-dependent cholesterol efflux ([4]; J774 with/without cAMP, acceptors lipid-free, 4 h): stimulated ABCA1-dependent cholesterol efflux similar to native apolipoproteins | capacity of peptide-treated plasma to stimulate cholesterol efflux via ABCA1 [5]: greater capacity to stimulate cholesterol efflux | preβ-HDL (2D gel, apoA-I antibody) ([6]; hamsters, 100 mg/kg sc, 1 h, 2 h, and 4 h): preβ-HDL increase | LDL [6, 8]: LDL lowering | small HDL [6, 8]: small HDL increase
